Experimental findings from publication PMC4237329, “Early Chordate Origin of the Vertebrate Integrin αI Domains” (PLoS ONE, 2014) are described below.

Where two headings read alike, the source gives them in different places.

This experiment has as its target T1, rat tail collagen I (rat, UniProt P02454 152-1207; P02466 86-1125).
T1 construct: collagen α1(I) chain, rat; collagen α2(I) chain, rat; also called rat collagen I; source: bought: Sigma Aldrich (rat tail collagen I)
Nature of the experiment: solid-phase binding assay (Europium-labelled anti-GST antibody, time-resolved fluorescence); 96-well plates coated with rat collagen I; GST-αI domain at various concentrations, one hour at RT, PBS + 2 mM MgCl2; apparent affinity constants from a hyperbolic fit (Hill's equation with h = 1).

T1 sequence (P02454 152-1207, chain 1 of 2): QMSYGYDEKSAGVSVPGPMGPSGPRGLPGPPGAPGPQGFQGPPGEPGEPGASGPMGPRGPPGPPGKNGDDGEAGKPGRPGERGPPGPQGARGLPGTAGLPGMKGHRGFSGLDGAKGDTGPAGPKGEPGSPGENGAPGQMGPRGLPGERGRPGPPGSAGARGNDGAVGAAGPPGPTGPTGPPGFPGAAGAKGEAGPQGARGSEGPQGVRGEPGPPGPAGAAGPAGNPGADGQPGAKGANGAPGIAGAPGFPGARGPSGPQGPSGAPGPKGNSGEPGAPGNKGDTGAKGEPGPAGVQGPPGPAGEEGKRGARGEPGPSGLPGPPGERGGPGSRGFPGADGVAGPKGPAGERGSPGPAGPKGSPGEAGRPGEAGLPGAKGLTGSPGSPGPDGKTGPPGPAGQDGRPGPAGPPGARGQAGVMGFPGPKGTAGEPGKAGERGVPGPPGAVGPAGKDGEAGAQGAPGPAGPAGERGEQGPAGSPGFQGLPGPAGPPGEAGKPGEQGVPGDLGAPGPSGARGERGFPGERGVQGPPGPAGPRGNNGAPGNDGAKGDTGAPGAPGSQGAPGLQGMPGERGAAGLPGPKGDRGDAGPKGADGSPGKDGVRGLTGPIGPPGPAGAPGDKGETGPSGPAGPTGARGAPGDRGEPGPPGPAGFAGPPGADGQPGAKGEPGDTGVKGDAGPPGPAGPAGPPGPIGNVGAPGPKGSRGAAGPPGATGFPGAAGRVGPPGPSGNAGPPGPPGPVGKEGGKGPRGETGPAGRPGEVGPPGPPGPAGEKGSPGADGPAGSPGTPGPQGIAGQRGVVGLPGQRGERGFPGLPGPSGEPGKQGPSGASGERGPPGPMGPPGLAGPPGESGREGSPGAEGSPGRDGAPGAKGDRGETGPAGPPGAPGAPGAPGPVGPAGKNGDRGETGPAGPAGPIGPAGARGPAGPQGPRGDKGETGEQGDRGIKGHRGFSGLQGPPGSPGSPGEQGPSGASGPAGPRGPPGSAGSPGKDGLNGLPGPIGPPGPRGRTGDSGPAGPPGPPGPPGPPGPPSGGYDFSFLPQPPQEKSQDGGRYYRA
T1 sequence (P02466 86-1125, chain 2 of 2): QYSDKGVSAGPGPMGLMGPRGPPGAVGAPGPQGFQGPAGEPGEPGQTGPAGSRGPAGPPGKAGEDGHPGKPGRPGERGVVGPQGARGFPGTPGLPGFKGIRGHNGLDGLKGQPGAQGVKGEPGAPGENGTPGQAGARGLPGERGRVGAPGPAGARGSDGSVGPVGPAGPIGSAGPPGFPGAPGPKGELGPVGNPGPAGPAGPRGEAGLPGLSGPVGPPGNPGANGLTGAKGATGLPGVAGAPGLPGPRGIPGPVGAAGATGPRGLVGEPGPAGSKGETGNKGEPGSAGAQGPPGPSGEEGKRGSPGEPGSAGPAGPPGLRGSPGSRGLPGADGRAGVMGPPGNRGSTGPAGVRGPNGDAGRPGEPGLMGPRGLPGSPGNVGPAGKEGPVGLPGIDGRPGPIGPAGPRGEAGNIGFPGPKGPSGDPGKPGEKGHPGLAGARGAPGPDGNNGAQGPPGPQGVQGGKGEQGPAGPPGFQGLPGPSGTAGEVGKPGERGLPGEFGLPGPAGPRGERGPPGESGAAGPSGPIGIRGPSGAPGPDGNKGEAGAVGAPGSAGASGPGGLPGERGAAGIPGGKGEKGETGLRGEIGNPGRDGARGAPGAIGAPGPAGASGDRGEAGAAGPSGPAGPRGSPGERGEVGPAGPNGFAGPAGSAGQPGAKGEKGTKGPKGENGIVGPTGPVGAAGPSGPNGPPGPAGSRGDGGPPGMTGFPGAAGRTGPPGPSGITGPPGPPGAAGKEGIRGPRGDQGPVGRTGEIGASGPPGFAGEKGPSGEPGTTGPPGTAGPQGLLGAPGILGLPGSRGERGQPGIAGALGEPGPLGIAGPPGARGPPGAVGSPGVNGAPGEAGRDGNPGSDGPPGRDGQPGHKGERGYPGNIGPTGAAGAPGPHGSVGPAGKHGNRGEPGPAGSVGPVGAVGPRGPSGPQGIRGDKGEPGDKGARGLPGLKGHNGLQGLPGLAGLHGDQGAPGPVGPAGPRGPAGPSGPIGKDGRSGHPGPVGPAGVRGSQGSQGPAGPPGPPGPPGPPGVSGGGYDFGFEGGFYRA

For “Pma_f1 αI domain (sea lamprey integrin α subunit fragment Pma_f1), GST-fusion protein (domain or fragment)”, the Kd worked out at 200 nM.

Regarding “Pma_f3 αI domain (sea lamprey integrin α subunit fragment Pma_f3), GST-fusion protein (domain or fragment)”, the Kd came to 195 nM.

B1: Pma_f2 αI domain (sea lamprey integrin α subunit fragment Pma_f2), GST-fusion protein (domain or fragment, sea lamprey (Petromyzon marinus))
chain: ADFQVTSTLTPAAQRCGLFMDIVIVLDGSNSIYPWQEVQNFVINIVKKFHIGPGQSRNGGGSTRFGVRTIHWHLGIARWACEGVQDVENIYSRPFVRTASALCQSLQVVRSEAFSPLFGAREGASKVMIVVTDGESHDSEDLTEAIAACERDNITRYAIAVLGYYKRKNIDPSNFISELKAISSEPEEKHFINVADEAALNDIVGTLGERIFSLEGTV
notes: also called Pma αI domains; source: E. coli BL21 tuner (gene synthesized, in pGEX-2T), recombinant GST-fusion protein, "sufficiently pure"
On to B1, for which, under “both partners purified”, the Kd was found to be 375 ± 120 nM.
